In IntAct's records for PubMed 15377662:

B1: Ras-related protein Rab-5A (Homo sapiens), P20339 (parent)
chain: MASRGATRPNGPNTGNKICQFKLVLLGESAVGKSSLVLRFVKGQFHEFQESTIGAAFLTQTVCLDDTTVKFEIWDTAGQERYHSLAPMYYRGAQAAIVVYDITNEESFARAKNWVKELQRQASPNIVIALSGNKADLANKRAVDFQEAQSYADDNSLLFMETSAKTSMNVNEIFMAIAKKLPKNEPQNPGANSARGRGVDLTEPTQPTRNQCCSN

Variants of: B1
Details: with p85a_bovin PIK3R1, P23727
Sequence of p85a_bovin PIK3R1, P23727 (P23727 whole entry): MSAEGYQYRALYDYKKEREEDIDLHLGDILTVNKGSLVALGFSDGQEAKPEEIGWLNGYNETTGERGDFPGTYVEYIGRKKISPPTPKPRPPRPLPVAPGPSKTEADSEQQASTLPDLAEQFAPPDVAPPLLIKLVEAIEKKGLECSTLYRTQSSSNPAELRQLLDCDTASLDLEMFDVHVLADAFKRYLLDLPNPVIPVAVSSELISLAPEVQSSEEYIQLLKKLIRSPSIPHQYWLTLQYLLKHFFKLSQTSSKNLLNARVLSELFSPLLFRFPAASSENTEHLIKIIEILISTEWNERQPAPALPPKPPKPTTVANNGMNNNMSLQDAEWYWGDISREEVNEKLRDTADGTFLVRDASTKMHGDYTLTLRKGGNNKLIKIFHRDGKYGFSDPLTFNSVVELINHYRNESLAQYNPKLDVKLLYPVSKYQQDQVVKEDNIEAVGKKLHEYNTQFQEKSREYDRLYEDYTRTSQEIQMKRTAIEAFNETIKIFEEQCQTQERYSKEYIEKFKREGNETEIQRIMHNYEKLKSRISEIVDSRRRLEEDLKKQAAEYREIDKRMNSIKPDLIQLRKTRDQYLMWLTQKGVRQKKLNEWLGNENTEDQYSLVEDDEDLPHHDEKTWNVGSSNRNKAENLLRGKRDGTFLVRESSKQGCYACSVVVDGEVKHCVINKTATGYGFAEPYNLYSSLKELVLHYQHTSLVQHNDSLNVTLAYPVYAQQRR

Row | effect of a mutation on the interaction | Variant
1 | disrupting interaction | MASRGATRPNGPNTGNKICQFKLVLLGESAVGKNSLVLRFVKGQFHEFQESTIGAAFLTQTVCLDDTTVKFEIWDTAGQERYHSLAPMYYRGAQAAIVVYDITNEESFARAKNWVKELQRQASPNIVIALSGNKADLANKRAVDFQEAQSYADDNSLLFMETSAKTSMNVNEIFMAIAKKLPKNEPQNPGANSARGRGVDLTEPTQPTRNQCCSN [S34N]

Variants of: B1
Details: with p85a_bovin PIK3R1, P23727
Remark: another data set of the same source

Row | effect of a mutation on the interaction | Variant
2 | decreasing interaction | MASRGATRPNGPNTGNKICQFKLVLLGESAVGKSSLVLRFVKGQFHEFQESTIGAAFLTQTVCLDDTTVKFEIWDTAGLERYHSLAPMYYRGAQAAIVVYDITNEESFARAKNWVKELQRQASPNIVIALSGNKADLANKRAVDFQEAQSYADDNSLLFMETSAKTSMNVNEIFMAIAKKLPKNEPQNPGANSARGRGVDLTEPTQPTRNQCCSN [Q79L]
